The record followed here is the DeepSol protein solubility set.

This data set can be described thus: soluble on expression in E. coli; label from the status in PepcDB or PDB records.
Consider “MSLDEAWKSLEKLRGVKLLPGNKVLLKRGEVFNGELEITGQGIPEDRIYIDAYGDDERKPCIVGYDTSLYAARICNSDYITMQNLEIVNTGRQPLPYRSGLKIECMDYGVSQNIVVNNVTVRDVNGSLVKEKGGGCGIYIVNGGEKKISTFNRLTIENCHILRCTRNAMIWAAYSDRQNWHPSKHTVIRGNLIEEVPGDGIVPIGCDSTLIEYNVMRDCPDMLPDTEAAAGIWPWSCDNTLVQFNEVSGHKAPWDAQGFDSDWNCRGTVIQYNYSHDNYGGLVLVCNDGTADASFNVGNLGTIVRYNVSIGDGVRPEPTRAGMFSPAVHLAGPVKDSRITRNIIHVNRKPAADIDRTMITLDSWGGYPDSTFISGNIFYAPESSRFQLTESTHNFFEGNYYLGRFEKLPEDGKACQSAEIYQKEVLAKDENGYQGLALLMDTVEVTGVKGVFVNKEAIENFFSRLEKEGHHHHHH”, for which the “soluble on expression in E. coli” value is recorded as “not soluble”.
As for “MLPAEREQFIITFLKTNKKATIHDLALEFNVHEATIRRDLNKLEQYNQIKRTHGGVVLNDSEVWDELNFDDRETSYYDEKVAIGLKAAEFVENGDTLFIDSGSTTIHFARALTQKSNLTIITNDIHIASILKSTANQIIVTGGILYQDNYLLNGMITNETLKLFNPSKLFLATPAIDLEKGITHFNDTLASTKIQMVKQAKAVYVLTDSSKFDKVALYNVCSSDTIDVLITDQTNKNIDWQAYDNHFKHLITVHAEAHPELEHHHHHH”, the “soluble on expression in E. coli” value was “soluble”.
In the case of “MGSDKIHHHHHHMKINRLTEIIVILLNKKLVTAKELADRFEVSTRTIYRDIETLSMSGVPVYMTKGKGGGISLIEEYSIDKAILSKKDKESLIVALKTLQATKYPEINSVVNKIGSIFGEQNFSNWIEIDFTEWGSNFNEDDKFTKIKEAILRRNTINFNYVNSLSSQTNRTVEPLKLMYKSKTWYLYGFCKLKDDFRIFRISRIRNLSIKDEVFSRKIIEEVCLNDSKVIKENTITLKLRFKEKMLFRVFDDFNKDLITKNEDDTYDVITEFPIGEWIYGYILSFGDNVEVLEPKDVRDNVITRLRELSKIYSL”, the “soluble on expression in E. coli” value was “not soluble”.
As to “MGSSHHHHHHSSGLVPRGSHMFADVETTCCARRTLTTIDEVPGMADETALLDWLGTMREKQPVWQDRYGVWHVFRHADVQTVLRDTATFSSDPTRVIEGASPTPGMIHEIDPPEHRALRKVVSSAFTPRTISDLEPRIRDVTRSLLADAGESFDLVDVLAFPLPVTIVAELLGLPPMDHEQFGDWSGALVDIQMDDPTDPALAERIADVLNPLTAYLKARCAERRADPGDDLISRLVLAEVDGRALDDEEAANFSTALLLAGHITTTVLLGNIVRTLDEHPAHWDAAAEDPGRIPAIVEEVLRYRPPFPQMQRTTTKATEVAGVPIPADVMVNTWVLSANRDSDAHDDPDRFDPSRKSGGAAQLSFGHGVHFCLGAPLARLENRVALEEIIARFGRLTVDRDDERLRHFEQIVLGTRHLPVLAGSSPRQSA”, the “soluble on expression in E. coli” value was “soluble”.
To “MNEHIESYHRILEEECLSINEFESFAEAYTIVNEFIKLYNTKRIHSSTKYMPPAEFYEHLRISGETVNMRL” belongs “not soluble”; to “MSWKHIKIPNGDTMIFCNSFITRKSSMNIVVTHTPIVTTLEMQKAYEPLAKHNVNIFAFDFSGTGKSDGYEKDFSRNSIVKDLDSVITYIEKNYSSNIHLYGNTGIGGMFAQYYACSDNKLKSFAQFACVDYKNTTGVGYTYLTVKLLNFFFKFLPNFHITVKPPKYKGYNEVYDNEFYKIFEKKNPHIWKNSTKIINTMLECFIAKDSKIKDGVNIPTLVFKTLHDRYFKTQYFDSYYNSLKCKKKLVEINNVHNSYYIDSEKFCQEAYDWFVENQ”, “not soluble”; to “MGSDKIHHHHHHMLLHSAWPRLLCPSPKAKHLKDPAMFELDHDLAQDIVDRAMAILPCNVNVMDSQGLILGSGEPERINTRHEGAQLVLANGRIVELDTDAAKCLKGVQPGVNLPLMLDGRLMGVLGLTGDPQQVRTYGELVRMTAEMLLAQRNLQADQQWRRQRCDDLLALLLGGSGNSPRLLDEARQLGLKPQLPRIPCLFEITSGPPAEALAAWLMSRYPDSWCVSPARQSLLWCRPAGVALDELRLLERLQRHGWDIERLALGSAAQSLEQLRRGYRRVRDLLAYGREVLPSERLLSLQRYRLPALLWRHRNDDALDELLEPLQRIRAKDSSGQLLATLRAWCAHDGQSQSCADALGIHRNSLRYRLERIAELGEVDPLRLEGMLSLYLGLQLLPTD”, “not soluble”.
As for “MSLSSYTVLAVDDSEINLKLIVHTLQPFGFQIFTAESAADARNVLLTNRVDVLLLDVSMPDQDGFSFCRELREIERFKLLPILFITGINREVGFDEAISHGGDDFIQKPFQPKELIAKIRAFIRIKILQDELLEQKKNYERELIMARKVQQELLPEKELEWNGVSLSTIFQPLMQIGGDYTDAWIEDDSLHIFIADCSGHGPSAALLAAMLKMQVSSLSPDQSLQEKVQTLRHNLEKILPDEFSITFFYGILHKDLSFEYSNGGHPAPMLYQNGEVSILPGMGPLIIPIEINVKEEFKSVQLQKDSYMLLYTDGATEISDKSMNILGEDKLKKIFQESVSIGGDILVSMMESILAHSDRGTNDDDIAMMVLKLEGHHHHHH”, the “soluble on expression in E. coli” value is given as “soluble”.
Regarding “METGMVTVVNSNNFDVPRIYPPSSKSTSIHLTGFPTFYSKDHEYLLPVNLWFNYLVNIRKAVDITASVRALKRYWQFLETNNYSWDNFPANDYLKPTYRFRNDDLLKAARSGEIAFSTASMYILHVIKFYEWAAHERFITFTEENKPFNYQIVHIANSGMMSHNNPRFTVRSTDLRIRKPARNEQQKLNPLSQQELLFFADCLKECSDEFIIHQLLQIQSGLRVEEACTFPFSIVEMPNPHIHRYEVEIGIHNGVHTKFNKTRKVEIPNQLMRKMYDYSVSERRLKREKKTDGVNKTLLLNNLGNPLCSNNIQQHFRRLRHHIQNKHNIVFSHRTHDLRATYGTYRLDSLLDHLPVGDALALIMGWMGHKDDKTTWKYLRYLRKEKANQNAIVMLDQILEEAML”, the “soluble on expression in E. coli” value is “not soluble”.
Consider “MEFVPEQHPPITETTTGAASNGCPVVGHMKYPVEGGGNQDWWPNRLNLKVLHQNPAVADPMGAAFDYAAEVATIDVDALTRDIEEVMTTSQPWWPADYGHYGPLFIRMAWHAAGTYRIHDGRGGAGGGMQRFAPLNSWPDNASLDKARRLLWPVKKKYGKKLSWADLIVFAGNCALESMGFKTFGFGFGRVDQWEPDEVYWGKEATWLGDERYSGKRDLENPLAAVQMGLIYVNPEGPNGNPDPMAAAVDIRETFRRMAMNDVETAALIVGGHTFGKTHGAGPADLVGPEPEAAPLEQMGLGWKSSYGTGTGKDAITSGIEVVWTNTPTKWDNSFLEILYGYEWELTKSPAGAWQYTAKDGAGAGTIPDPFGGPGRSPTMLATDLSLRVDPIYERITRRWLEHPEELADEFAKAWYKLIHRDMGPVARYLGPLVPKQTLLWQDPVPAVSHDLVGEAEIASLKSQIRASGLTVSQLVSTAWAAASSFRGSDKRGGANGGRIRLQPQVGWEVNDPDGDLRKVIRTLEEIQESFNSAAPGNIKVSFADLVVLGGCAAIEKAAKAAGHNITVPFTPGRTDASQEQTDVESFAVLEPKADGFRNYLGKGNPLPAEYMLLDKANLLTLSAPEMTVLVGGLRVLGANYKRLPLGVFTEASESLTNDFFVNLLDMGITWEPSPADDGTYQGKDGSGKVKWTGSRVDLVFGSNSELRALVEVYGADDAQPKFVQDFVAAWDKVMNLDRFDVR”, for which the “soluble on expression in E. coli” value is “soluble”.
Regarding “MGSDKIHHHHHHMVKRMHCNINLKYGVIMKKDCYTLRISLKPGFINAEQLKAIAYVIENFGDNKAHITTRQGIEFKISPEHLEEVEKILNNVGLNLGSTGNRVRQVVSCIGLECYNAIGDSVSLARRIHEEFEGVWVPRKVKINVSGCPNSCTFHRFCDIGICYRYKITINKEICTNCGKCKDFCDLNAIDWERKIIKDNCTGEGKCTGLCNAFKAERVISIFVGGKGGRIYKEGKHLIDLKNEDDVLFVIDELISLYAKFGKGRMADFVENYGIENLRNNIKELIK”, the “soluble on expression in E. coli” value was “not soluble”.
With “MIKPLTSSQEEVLKALNDDKYQIVGVFGPTGTGKTLLTLSYGIDVIKQGKFKKFIIVKPIVDIVTKKEITATELPNYHEVILSYIKDVLGPEYSATVDELYKSGRIEILDSRLLRGRTFDDSIIFIDEVQELQPESIIELIIRIGRNSKLVVAGDPVFQSLQMKTFKDPSELVREVLLNEEDAKVIDLGVKDIIRAGAKRGLRLLIEYRLRSRILSEEENKVLNVTKAHAPDADIITVVDLSEEKKKLGLDNLTTVPDSIIVVKEGNIGRLVGKGGERINSTEKEIGKKLRALELSLDFKEYIRAVHPLPWVVKHIEDADFKGNELVVQIKKETGAFMGQKGSYVRFVDEAIRKLLGVGIRVIAKENENS”, the “soluble on expression in E. coli” value is “soluble”.
“SAENHCELLPPAPSGLGAGLGGGLCRRCSAGMGALAQRPGGVSKWVRLNVGGTYFLTTRQTLCRDPKSFLYRLCQADPDLDSDKDETGAYLIDRDPTYFGPVLNYLRHGKLVINKDLAEEGVLEEAEFYNITSLIKLVKDKIRERDSRISQMPVKHVYRVLQCQEEELTQMVSTMSDGWKFEQLVSIGSSYNYGNEDQAEFLCVVSKELHNTPYGTTSEPSEKAKILQERGSRM”: the “soluble on expression in E. coli” value is “soluble”.
In the case of “MTLSRFAYNGQRCPSSHNILDNSKIISEDCRKELTELFHHYYPIEIDPHRTIKEKLPHMVQWWSKAHSLLCQQRIQKVQIAQVVGESTAMLREGYKTFFDTLYQNNIPLFIFSAGIGDILEEIIRQMKVFHPNIHIVSNYMDFSEDGFLKGFKGQLIHTYNKNSSVCENSSYFQQLQNKTNIILLGDSIGDLTMADGVPGVQNILKIGFLNDKVEERRERYMDSYDIVLEKDETLDVVNGLLRHILYQGDCVELQGS”, the “soluble on expression in E. coli” value is on record as “soluble”.
With “MSLYNKVLIIDDHPVLRFAVRVLMEKEGFEVIGETDNGIDGLKIAREKIPNLVVLDIGIPKLDGLEVIARLQSLGLPLRVLVLTGQPPSLFARRCLNSGAAGFVCKHENLHEVINAAKAVMAGYTYFPSTTLSEMRMGDNAKSDSTLISVLSNRELTVLQLLAQGMSNKDIADSMFLSNKTVSTYKTRLLQKLNATSLVELIDLAKRNNLAEGHHHHHH”, the “soluble on expression in E. coli” value is “not soluble”.
Turning to “AHHHHHHGSVIEEEGKVEILPRDVDLSKYVDSVEVDVDNFGDYHELRKELREKKMRFIDANVFIYAILKPKRELNEKELKIKRVSKEIFNRINGGEEVVTTVVHLSEVANVLEDAANLSFAISFLKDVLIKGNVIVEEVSDRDYMESVLLAEEKGVSINDALAYILMKRKGIEEIYTFDRHFENLDVRIVNS”, the “soluble on expression in E. coli” value is recorded as “soluble”.
Turning to “MNSENSFSSSEHITVLLHEAVNGLALKENGIYIDGTFGRGGHSRFILSQLSSNGRLIAVDRDPRAIAEAHKIQDLRFQIEHNSFSHIPEICDKLNLVGKIDGILLDLGVSSPQLDEAERGFSFMKDGPLDMRMDTTQGLSAEEWLKQVSIEDLTWVLKTFGEERFAKRIATAIVDFNKSAVKNGTEFLSRTSQLAELISQAVPFKDKHKHPATRSFQAIRIFINSELDELESLLNSALDMLAPEGRLSIISFHSLEDRMVKHFMKKQSKGEDIPKGLPLREDQIQRNQKLRIIGKAIQPSDAEIQANPRSRSAILRVAERI”, the “soluble on expression in E. coli” value is reported as “not soluble”.
Take “MGSDKIHHHHHHQGPQCNHAQLPFQQMTPVPYDSTPYSPQDTMPEQCSNPEVEAYIADWEAGKIDFTTIKANDSIAADQRFCKTLDDDGNISEVKDCDRTKSPVGYIWKELSDSPVVIGITDGGKSDHAPHFHGQPECYYVVNGEGQTLADNQFKKLGTGQYFYIPGATIHNTPIMSEKGLGVIYWYPNNAHFDGFKYYWRKDVKNLRVAEEAFDRVDAIRKRDLNLGPYGTNEAFFKK”: the “soluble on expression in E. coli” value is given as “not soluble”.
